For test [1], the target named is human TLR4 (Toll-like receptor 4) (human) (UniProt O00206). The experiment in a line: cell-based or functional assay.
In test [2] the target is CD14 (human) (UniProt P08571). Nature of the test: cell-based or functional assay.

Data on two substances can be found in US7666420.

UniProt P08571, sequence (P08571 20-345): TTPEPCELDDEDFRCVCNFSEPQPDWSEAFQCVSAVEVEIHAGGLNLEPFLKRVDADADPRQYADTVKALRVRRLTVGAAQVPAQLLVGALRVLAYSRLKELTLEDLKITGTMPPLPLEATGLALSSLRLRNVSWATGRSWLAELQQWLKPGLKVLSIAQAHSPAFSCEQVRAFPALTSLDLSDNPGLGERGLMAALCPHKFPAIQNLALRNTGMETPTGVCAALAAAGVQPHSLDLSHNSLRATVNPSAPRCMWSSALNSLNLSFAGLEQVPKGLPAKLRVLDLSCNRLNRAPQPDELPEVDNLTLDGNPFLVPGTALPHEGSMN
UniProt O00206, sequence (O00206 24-839): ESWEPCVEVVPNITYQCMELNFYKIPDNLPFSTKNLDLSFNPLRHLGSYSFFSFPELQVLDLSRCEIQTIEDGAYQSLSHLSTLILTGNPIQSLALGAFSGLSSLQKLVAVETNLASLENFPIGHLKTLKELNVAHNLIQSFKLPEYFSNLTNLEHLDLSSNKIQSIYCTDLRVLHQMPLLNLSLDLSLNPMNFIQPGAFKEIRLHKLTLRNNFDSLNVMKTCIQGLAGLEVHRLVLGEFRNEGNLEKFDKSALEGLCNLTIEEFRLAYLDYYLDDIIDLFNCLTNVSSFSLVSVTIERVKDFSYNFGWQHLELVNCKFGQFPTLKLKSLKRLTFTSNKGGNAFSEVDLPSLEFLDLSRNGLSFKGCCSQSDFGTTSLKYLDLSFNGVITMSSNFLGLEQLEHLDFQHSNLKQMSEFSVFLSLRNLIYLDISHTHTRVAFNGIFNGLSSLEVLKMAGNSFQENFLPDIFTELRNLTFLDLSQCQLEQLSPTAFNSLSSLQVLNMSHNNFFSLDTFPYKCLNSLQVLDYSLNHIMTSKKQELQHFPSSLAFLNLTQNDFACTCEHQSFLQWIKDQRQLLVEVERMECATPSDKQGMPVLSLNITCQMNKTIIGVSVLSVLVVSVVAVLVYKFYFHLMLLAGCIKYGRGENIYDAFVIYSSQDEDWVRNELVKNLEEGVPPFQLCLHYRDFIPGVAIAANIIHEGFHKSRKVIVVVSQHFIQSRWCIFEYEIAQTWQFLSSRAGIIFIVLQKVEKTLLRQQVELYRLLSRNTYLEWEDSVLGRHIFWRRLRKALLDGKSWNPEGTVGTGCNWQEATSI

Substance “anti-human TLR4 monoclonal antibody HTA125 (eBioscience)” returned an inhibition of TNF-alpha secretion by human PBMCs stimulated with Env-SU, cells preincubated with anti-TLR4 antibody in test [1] of 37%.
For the substance “anti-CD14 neutralizing antibody (rhCD14, ref.: AB383, R&D Systems-UK)”, in test [2], the inhibition of TNF-alpha secretion by human PBMCs stimulated with Env-SU, cells preincubated with anti-CD14 antibody amounted to 83%.
